These results are taken from patent US11618777B2, “Method of manufacturing membrane protein and utilization thereof” (priority 2015, dated 2023).

Series [1] is described as follows: GlcT enzyme activity (specific activity) of cell-free synthesized human GlcT. The settings on record: GlcT produced by liposome method with porcine brain lipid mixture.
Series [2] has as its target T1, human claudin-4 (residue: 1 to 183) synthesized in a cell-free system (human, UniProt O14493 1-183).
T1 sequence: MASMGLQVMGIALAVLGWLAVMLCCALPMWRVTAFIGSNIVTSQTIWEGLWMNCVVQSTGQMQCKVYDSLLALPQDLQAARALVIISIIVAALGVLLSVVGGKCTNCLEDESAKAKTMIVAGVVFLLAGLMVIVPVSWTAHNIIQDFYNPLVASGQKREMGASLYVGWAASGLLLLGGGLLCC

For series [3], the target named is C-terminal fragment (C-CPE) of Clostridium perfringens enterotoxin (CPE) (Clostridium perfringens, UniProt P01558). The settings on record: read-out: KD value.

B1: GlcT: Human glucosylceramide synthase, estimated 3-transmembrane enzyme, produced in a cell-free system with lipids (protein, UniProt Q16739 1-394, looked up)
Ceramide glucosyltransferase: MALLDLALEGMAVFGFVLFLVLWLMHFMAIIYTRLHLNKKATDKQPYSKLPGVSLLKPLKGVDPNLINNLETFFELDYPKYEVLLCVQDHDDPAIDVCKKLLGKYPNVDARLFIGGKKVGINPKINNLMPGYEVAKYDLIWICDSGIRVIPDTLTDMVNQMTEKVGLVHGLPYVADRQGFAATLEQVYFGTSHPRYYISANVTGFKCVTGMSCLMRKDVLDQAGGLIAFAQYIAEDYFMAKAIADRGWRFAMSTQVAMQNSGSYSISQFQSRMIRWTKLRINMLPATIICEPISECFVASLIIGWAAHHVFRWDIMVFFMCHCLAWFIFDYIQLRGVQGGTLCFSKLDYAVAWFIRESMTIYIFLSALWDPTISWRTGRYRLRCGGTAEEILDV
Regarding B1, in series [1], the “specificity (specific activity) relative to sample produced with GalCer (5%), cholesterol (5%), egg PC (90%)” value is “approximately 2.7 times higher”.

B2: GST tag-added C-CPE (ligand)
chain: RCVLTVPSTDIEKEILDLAAATERLNLTDALNSNPAGNLYDWRSSNSYPWTQKLNLHLTITATGQKYRILASKIVDFNIYSNNFNNLVKLEQSLGDGVKDHYVDISLDAGQYVLVMKANSSYSGNYPYSILFQKF
Molecule B2 gave a Kd in series [2] of 3.4 nM.

B3: human claudin-4: Human claudin-4 (residue 1 to 183), 4-transmembrane tight junction protein produced by the cell-free lipid-detergent method (protein, UniProt O14493 1-183, looked up, fragment)
chain: T1 sequence
As for B3, in series [3], the Kd turned out to be 3.4 nM.

The Kd is a measure of binding affinity in units of concentration.
